Laboratory results as given in US10653749B2, “Targeting GIV-GEF-GI signaling for treating diverse diseases” (The Regents of the University of California, priority 2015, dated 2020).
Substitutions are numbered along the chain they refer to. Names and notes keep the numbering of the source. “Also recorded” adds a separate entry of the source.

B1: TAT-GIV-CT-WT: Recombinant cell-permeable fusion of TAT-PTD, His and HA tags, linker and human GIV C-terminus (aa 1660-1870), wild type; SEQ ID NO: 2 (protein)
chain: MRGSHHHHHHGMASMTGGQQMGRDLYDDDDKDRWGSKLGYGRKKRRQRRRGGSTMSGYPYDVPDYAGSMGGSGHSGETLESRHHKIKTGSPGSEVVTLQQFLEESNKLTSVQIKSSSQENLLDEVMKSLSVSSDFLGKDKPVSCGLARSVSGKTPGDFYDRRTTKPEFLRPGPRKTEDTYFISSAGKPTPGTQGKIKLVKESSLSRQSKDSNPYATLPRASSVISTAEGTTRRTSIHDFLTKDSRLPISVDSPPAAADSNTTAASNVDKVQESRNSKSRSREQQSS
B2: TAT-GIV-CT-FA: GEF-deficient F1685A mutant of the TAT-GIV-CT peptide, dominant-negative; SEQ ID NO: 3 (protein)
chain: B1 chain with F101A

Experiments:
[1] = tested on: HeLa cells; assay: Scratch-wound 2D cell migration assay; assay type: cell-based; details: lysates 6 h post-wounding
[2] = biological target: T1, GST-Gαi3 (GDP loaded) (Rattus norvegicus, UniProt P08753); assay: In vitro GST pulldown of TAT-GIV-CT proteins with GST-Gαi3; assay type: binding; details: 3 μg TAT protein, 4 h at 4° C., immunoblot with His mAb
T1 construct: made in house; host or cells: E. coli BL21(DE3)
Procedure: Purified GST-Gαi3 or GST alone (5 μg) were immobilized on glutathione-Sepharose beads and incubated with binding buffer [50 mM Tris-HCl (pH 7.4), 100 mM NaCl, 0.4% (vol:vol) Nonidet P-40, 10 mM MgCl2, 5 mM EDTA, 30 μM GDP, 2 mM DTT, protease inhibitor mixture] for 90 min at room temperature as described (49, 50, 52, 54). TAT-GIV-CT (amino acids 1,660-1,870) proteins (3 μg) were added to each tube, and binding reactions were carried out for 4 h at 4° C. with constant tumbling. Beads were washed (four times) with 1 mL of wash buffer [4.3 mM Na2HPO4, 1.4 mM KH2PO4 (pH 7.4), 137 mM NaCl, 2.7 mM KCl, 0.1% (vol:vol) Tween 20, 10 mM MgCl2, 5 mM EDTA, 30 μM GDP, 2 mM DTT] and reduced in Laemmli's sample buffer at 37° C. Immunoblot analysis was performed by infrared imaging following the manufacturer's protocols using an Odyssey imaging system (Li-Cor Biosciences).

[3] = tested on: L6 myotubes; assay: Fluorometric 2-deoxyglucose uptake assay after insulin stimulation; assay type: cell-based, rat; details: for insulin-stimulated glucose uptake in the basal state: L6 myotubes without PA; for reversal of PA-induced IR (insulin stimulated glucose uptake): PA-treated L6 myotubes
Procedure: Transfection was carried out with GeneJuice (Novagen) for DNA plasmids or Oligofectamine (Invitrogen) for siRNA oligos according to manufacturer's protocols. Silencer negative Control scrambled (Scr) siRNA used as control was purchased from Ambion and the previously validated (Enomoto et al., 2005) GIV siRNA sequence used was custom-ordered from Dharmacon. For TAT-construct transduction, cells were incubated with 300-800 nM of the TAT-proteins for 30 min at 37° C. prior to three washes with PBS and addition of fresh growth media. For assays involving insulin (Novagen) stimulation of TAT-treated cells, such stimulation was carried out 90 min after transduction.
Unless otherwise indicated, serum starvation of cells for use in experiments involving insulin stimulation was carried out by growing cells overnight in the presence of no serum (i.e., 0% FBS) in the case of Cos7 and L6 cells, or in the presence of 0.2% FBS in the case of HeLa cells. To induce IR, cells were pre-treated with Sodium Palmitate (PA; Sigma-Aldrich) (0.5 mM, stock solution at 5 mM/5% FFA-free BSA in ethanol) or vehicle control (5% FFA-free BSA in ethanol) for 16 h. To reverse IR with TZDs, cells were treated with 50 μM Pioglitazone (Pio) (Sigma-Aldrich) or DMSO (vehicle control) for 18 h prior to stimulation with 100 nM insulin. Treatment with PKCθ pseudo-substrate inhibitor (Santa Cruz Biotechnologies) was performed at 10 μM for 16 h.
Glucose uptake assays were performed without the use of radioisotopes as described previously (Yamamoto et al., 2006). HeLa and L6 cells grown in 6-well plates were stimulated with insulin in KRH Buffer [50 mM HEPES, 137 mM NaCl, 4.7 mM KCl, 1.85 mM CaCl2, 1.3 mM MgSO4, and 0.1% (w/v) BSA-FFA free, pH 7.4]. Cells were incubated with 1 mM 2-deoxyglucose (2-DG) for 20 min, washed, and subsequently lysed with 0.1 N NaOH. The lysates were transferred into eppendorf tubes and samples were incubated in a water bath maintained at 80° C. for 45 min to degrade endogenous NAD(P)H and NAD(P)^+. An equal volume each of 0.1 N HCl and Triethanolamine (200 mM TEA, pH 8.1) buffer were added to each tube. Samples were subsequently mixed with assay solution [50 mM TEA, 0.02% BSA-FFA free, 10 μM NAD(P)^+, 0.2 U/ml Diaphorase, 6 nM Resazurin sodium, 15 U/ml G6PDH (Santa Cruz Biotechnologies)] and incubated at 37° C. for 90 min. Fluorescence intensity (λex=550 nM, λem=590 nM) was determined using a Tecan Inifinite M1000 PRO and normalized to total protein, as determined using BCA assay (Thermo Scientific).

[4] = tested on: EGFR autophosphorylation and Akt signaling; assay: EGF signaling in TAT-transduced HeLa cells by immunoblotting; assay type: cell-based; details: 50 nM EGF; for EGFR autophosphorylation: pY1068
Procedure: For immunoblotting, protein samples were separated by SDS/PAGE and transferred to PVDF membranes (Millipore). Membranes were blocked with PBS supplemented with 5% nonfat milk (or with 5% BSA when probing for phosphorylated proteins) before incubation with primary antibodies. Infrared imaging with two-color detection and quantification were performed using a Li-Cor Odyssey imaging system (50, 52, 53). Primary antibodies were diluted as follows: anti-His 1:1,000; anti-GIV/Girdin (T-13) 1:500; antiphospho EGFR 1068 (1:1000); anti-phospho-Akt (Ser473) 1:250; anti-Akt 1:500; anti-Gαi3 1:333; anti-pan-GP 1:250; anti-α tubulin 1: 2,000. All Odyssey images were processed using Image J software (NIH) and assembled for presentation using Photoshop and Illustrator software (Adobe).
For TAT-protein transduction, cells were incubated with 400-800 nM of the TAT-proteins for 30 min at 37° C. prior to three washes with PBS and addition of fresh growth media. For analysis of EGF signaling, subconfluent monolayers of HeLa cells were treated with TAT proteins for 30 min, washed with PBS, and subsequently stimulated with EGF (50 nM) at 4 h after TAT transduction. For scratch-wound assays, HeLa monolayers were treated with TAT proteins before and at 12 h after wounding. For cancer cell invasion assays, highly invasive MDA MB 231 breast cancer cells were plated in 6-well dishes, treated with TAT-peptides for 30 min and subsequently lifted and placed in transwell chamber in the presence of serum-free media. For L×2 myofibroblast activation assays, cells were first treated with TAT-proteins for 30 min, starved in serum-free media, and subsequently treated with 1.5 ng/ml TGF-β for 24 h. TAT-protein transduction was repeated every 8 h during the course of TGFβ stimulation (total 3 treatments). For assays involving insulin stimulation of TAT-treated L6 myotubes, such stimulation was carried out 90 min after transduction. In each case, whole cell lysates prepared from cells in duplicate wells were analyzed for signaling pathways and TAT-protein uptake by immunoblotting.

T1 sequence (P08753 whole entry): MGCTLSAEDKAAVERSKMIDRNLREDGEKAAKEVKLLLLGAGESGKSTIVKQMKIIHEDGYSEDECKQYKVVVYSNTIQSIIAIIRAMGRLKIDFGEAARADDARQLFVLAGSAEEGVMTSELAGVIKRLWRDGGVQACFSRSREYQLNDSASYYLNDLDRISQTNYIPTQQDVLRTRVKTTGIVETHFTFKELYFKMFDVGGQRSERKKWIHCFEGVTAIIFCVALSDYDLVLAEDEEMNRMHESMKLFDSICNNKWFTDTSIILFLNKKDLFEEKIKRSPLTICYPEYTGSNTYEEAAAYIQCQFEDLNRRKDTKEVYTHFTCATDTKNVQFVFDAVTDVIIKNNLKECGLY

Molecule | Akt activation during 2D cell migration [1] | EGFR autophosphorylation during 2D cell migration [1] | Akt activation during 2D cell migration ([1]; listed as WT) | EGFR autophosphorylation during 2D cell migration ([1]; listed as WT) | Binding to GDP-loaded GST-Gαi3 in pulldown [2] | Binding to GDP-loaded GST-Gαi3 in pulldown ([2]; listed as WT) | insulin-stimulated glucose uptake in the basal state [3] | reversal of PA-induced IR (insulin stimulated glucose uptake) [3] | reversal of PA-induced IR (insulin stimulated glucose uptake) ([3]; listed as GIV-CT-WT) | effectiveness in reversing PA-induced IR compared with Pio ([3]; ~800 nM of WT peptide) | Akt signaling (phosphorylation at Ser 473) [4] | EGFR autophosphorylation [4] | Binding to GDP-loaded GST-Gαi3 in pulldown ([2]; listed as FA)
B1 | enhances | enhances | enhanced | enhanced | bound | binds | unaffected | effectively reverse | effectively reversed | as effective as 50 μM Pio | enhances | enhances | –
B2 | not | not | – | – | did not bind | – | significantly inhibited | not | – | – | inhibited; also recorded: suppresses | inhibited; also recorded: suppresses | not
